The source of these data is article PMC2921000 (Nature, 2010).

The target of the test is T1, Spc98p (Saccharomyces cerevisiae, UniProt P53540 1-846).
T1 sequence: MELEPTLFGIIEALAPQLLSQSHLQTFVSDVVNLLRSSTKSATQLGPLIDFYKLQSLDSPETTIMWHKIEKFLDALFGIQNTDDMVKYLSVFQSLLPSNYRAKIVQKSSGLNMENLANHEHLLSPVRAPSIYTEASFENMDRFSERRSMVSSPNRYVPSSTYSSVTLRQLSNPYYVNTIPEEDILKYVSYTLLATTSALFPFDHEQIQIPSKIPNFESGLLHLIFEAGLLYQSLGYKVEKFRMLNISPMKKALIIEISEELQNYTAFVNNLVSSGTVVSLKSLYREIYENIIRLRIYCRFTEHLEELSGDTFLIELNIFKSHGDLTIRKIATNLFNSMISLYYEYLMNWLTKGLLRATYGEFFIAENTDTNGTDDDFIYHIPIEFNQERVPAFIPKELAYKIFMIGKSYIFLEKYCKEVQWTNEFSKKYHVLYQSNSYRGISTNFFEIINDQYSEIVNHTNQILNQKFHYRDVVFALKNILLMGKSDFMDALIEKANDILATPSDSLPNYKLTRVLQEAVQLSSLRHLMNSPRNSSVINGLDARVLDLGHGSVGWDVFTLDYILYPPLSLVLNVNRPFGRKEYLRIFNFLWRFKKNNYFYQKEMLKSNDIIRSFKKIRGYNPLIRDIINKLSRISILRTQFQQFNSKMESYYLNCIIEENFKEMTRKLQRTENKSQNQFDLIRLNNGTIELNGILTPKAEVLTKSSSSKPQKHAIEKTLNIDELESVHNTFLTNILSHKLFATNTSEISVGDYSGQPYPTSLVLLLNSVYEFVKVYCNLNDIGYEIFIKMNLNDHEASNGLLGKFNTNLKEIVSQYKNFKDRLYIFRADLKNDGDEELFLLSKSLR
The test can be described thus: cryo-EM structure.

B1: Spc97p (natural protein)
chain: MEIKEVDDRAELLRYTNNIPLLGKLVNHQPLWSTNPKLKSFSLEKISAPDQRRVQEALVVKDLLNVLIGLEGTYIRYFNDYEPSDPETPIEFKIAKKMDPSFKTFSRRIVRYGKQYMILTRAYEKWSDTSFGMVLQRFAYEIRRFLEDVYLKTLVERLERDFNKVPNFSIRELEQIINETEVNKQMELLYNIYEEIFREIEERRTNQSSQEDFNNFMDSMKNESSLHLRLMVAFDTTVYPVPKGGAILKIFQQKILENLGDRSSVMFLKKLLNNISQDYCTMLYEWLTQGILNDPYQEFMTYDDLEGKTDNIFDTRDRAWDTQYFIRKDVLLRDCDSEEDKNLLFKMLRTGILLKVVRASLQIPTIPSNSSDITIQEINDFADLMEGSNLELYVDKCYSRANEIFLKLFFQGYDLINVLKHLQQIFLGYQSGHNVLKFLTKNMGELTKHYRNDNNANYDKLLQNFELERQSENPNNLMRQLLMIQFDTETLPQVLSHYLQIYPEVPENNSANDDSDPLMHANNFKNMNAILFDELSKERTGAYHGSNLELYTPKSAIYHLKFDINIPYPLNIIISRTCMIKYQIILRYQLVLQYHSRLLDETWMDLNKTPSWKYRGYSHTVKRRIVRATRVLHAKMNHFIKTIMEYFNQNVIDKEVYSLEKCYRNPTLAVAIQNELEGGLTNIMTNRCLSDLIPLQLQIFDIVYKFCKFIKSMRAKLCQLDPVLYEKHKSGMMKTLNEGYRTNNGGQEDVGYQEDAALELIQKLIEYISNASSIFRKCLINFTQELSTEKFDFYDSSSVDAAGIERVLYSIVPPRSASASSQR
Consider B1, for which the binding result was “binds”.
